Assay results from patent publication US20140017267A1, “METALLOPROTEINASE OLIGOPEPTIDES AND THEIR THERAPEUTIC USE” (priority 2012, published 2014).

Tests used:
[1] = Testing of peptide solubility; assay type: physicochemical
[2] = Testing of peptide solubility; assay type: physicochemical; conditions: 8M Urea, final concentration 1.1 mg/ml (first solubility table, headed TABLE 1)
Experimental: Testing of peptide solubility: Data for peptide solubility are represented in Table 1 and 2. Peptides SEQ ID 5-21 was dissolved in 8M Urea to a final concentration of 1.1 mg/ml.

BALB/c female mouse = experiment: Immune response to individual peptide: immunization of mice, indirect solid-phase immunoenzymatic assay of antiserum (A450); assay type: in vivo; conditions: for OD 450 Mean values (n = 3-5) for dilution 1:10,000: antiserum of mice immunized i.p. with 100 μg peptide+Str-HRP, day 38 bleed, serum dilution 1:10,000; for immune response: comparison among the 17 peptides
Experimental: Peptides were dissolved in appropriate volume 8M Urea and additional solution. Final concentration of peptide-Str-HRP solution was 0.8 mg/ml and 0.6 mg/ml for peptide and Str-HRP, respectively. After dissolving, 4 aliquotes in 0.2 ml portions were taken from each peptide solution, mixed with 0.6 ml Str-HRP and incubated over night at +4° C. Conjugate peptide with carrier protein (Str-HRP) was frozen and stored at −20° C. until further use. Final concentration of urea in peptide-Str-HRP solution was 2M for all peptides.
Day 0: Immunization with complete Freund's adjuvant Day 7: Booster with incomplete Freund's adjuvant Day 14: Booster with incomplete Freund's adjuvant Day 28: Booster with incomplete Freund's adjuvant Day 38: Terminal bleed
Method of Immunization: Frozen 0.8 ml aliquotes of peptide+Str-HRP conjugate were thawed at room temperature (RT) and mixed with 0.8 ml of appropriate adjuvant. Adjuvant was added and mixed by vortexing immediately before injections were given. Immunization was done by using intra peritoneal injections with 100 μg peptide per animal in final volume 250 μl of 1:1 (v:v) peptide+Str-HRP:adjuvant. Five animals were used per peptide.
Preparation of serum: At 38 days, the mouse was bled. Blood was collected in 2-ml microcentrifuge tube and the blood was allowed to clot at room temperature for 1 hour. Centrifugation using the microcentrifuge tube with the clot inside was done for 15 min at 2500 g and serum was collected. Volume for each sample was no less than 400 μl. The serum was stored at −20° C.
Testing immune response to individual peptide: Determination of mouse antibodies to peptide based on indirect solid-phase immunoenzymatic assay with avidin on solid-phase was performed. Materials used were 96-well polystyrene plates high binding (#9018 Costar, USA), all solution for ELISA: sample diluent (10 mM sodium phosphate, 500 mM NaCl, 0.5% BSA, 0.05% Tween-20, pH 7.4), conjugate diluent (10 mM sodium phosphate, 150 mM NaCl, 0.5% BSA, 0.05% Tween-20, pH 7.4), wash fluid (10 mM sodium phosphate, 300 mM NaCl, 0.05% Tween-20, pH 7.4), substrate buffer (50 mM sodium citrate and hydrogen peroxide, pH 5.0), TMB solution (3,3′,5,5′-tetramethylbenzidine), stop solution (2M sulphuric acid) were taken from EIA Kit for detection of antibody to HIV “Peptoscreen-2” (Amercard Ltd, Russia), conjugate of rabbit antibody to mouse IgG with HRPO (custom made), avidin from egg white (Imtek, Russia). Negative controls of 5 sera were pooled from the nonimmune BALB/c female mouse. Dispensing of solutions with Finnpipette digital adjustable volume pipettes 0.5-10 μl, 5-40 μl, 20-200 μl, 200-1000 μl, 1-5 ml and 12-channel pipettes 5-50 μl, 50-200 μl. Plate washer ZLE201 (Amersham Inc., UK), incubator at 37° C.—Imperial II (Lab-Line Instruments Inc., USA), EIA plate reader—Luminometer-Photometer LM01A (Immunotech, Beckman Coulter Company, USA).
Test procedure: Peptides for binding on the avidin-coated plate were taken from test-solution for determining the solubility of peptides (chapter 1.3., table 1 and 2) and were dissolved up to 2 mM in sample diluents immediately before the test procedure as shown in Table 3.
EIA plates were coated by adding to a well containing 100 μl of avidin dissolved 10 μg/ml in 50 mM carbonate buffer, pH 9.5 and incubated for 20 h at 20° C. The plates were washed 4 times with wash fluid. Peptides 2 mM, […] in sample diluent and incubated 60 min at 37° C. Control wells contain avidin. The plates were washed 4 times with wash fluid. Serum from each mouse and negative control were diluted 1:100, 1:1000 and 1:10000 in sample diluents and were added to the wells, coated by the corresponding peptide (100 μl per well) and incubated for 1 h at 37° C. The plates were washed 4 times with wash fluid. Conjugates of rabbit anti-mouse IgG antibody with HRPO (dilution of 1:3000 in conjugate diluent) were added to the wells (100 μl per well). The plates were incubated for 0.5 h at 37° C. […]

[3] = 8M Urea, larger weights (TABLE 2), no additional solution

Row | Substance | Solubility [1, 3] | Solubility [2] | OD 450 Mean values (n = 3-5) for dilution 1:10,000 (BALB/c female mouse) | immune response (BALB/c female mouse) | Solubility ([1]; 8M Urea plus equal volume 0.1M Na-carbonate buffer, pH 9.5 (TABLE 2))
1 | SEQ ID 21: Rabbit MMP-9 synthetic oligopeptide, sequence DKDKLYGFCPTRADS | Soluble | Soluble | 0.411 |  | 
2 | SEQ ID 5: Mouse MMP-9 synthetic oligopeptide, sequence DKDGKFGF | Soluble | Soluble | 0.845 |  | 
3 | SEQ ID 14: European Carp MMP-9 synthetic oligopeptide, sequence CHFPFLFEGTSYSSC | Soluble | Soluble | 0.394 |  | 
4 | SEQ ID 18: Rat MMP-9 synthetic oligopeptide, sequence DKADGFCPTRADVTV | Soluble | Soluble | 0.138 |  | 
5 | SEQ ID 20: Carp MMP-9 synthetic oligopeptide, sequence DKKYGFCPNRDTAVI | Soluble | Soluble | 0.138 |  | 
6 | SEQ ID 17: Bovine MMP-9 synthetic oligopeptide, sequence DQDKLYGFCPTRVDA | Soluble | Soluble | 0.780 |  | 
7 | SEQ ID 15: Pufferfish MMP-9 synthetic oligopeptide, sequence CHFPFRFQNKPYKHC | Soluble | Soluble |  | most active | 
8 | SEQ ID 16: Flounder MMP-9 synthetic oligopeptide, sequence CHFPFTFEGKSYTSC | Soluble | Soluble | 0.823 |  | 
9 | SEQ ID 10: Rabbit MMP-9 synthetic oligopeptide, sequence DTDRRFGF | Soluble | Soluble |  |  | 
10 | SEQ ID 6: Bovine MMP-9 synthetic oligopeptide, sequence DADRQFGF | Soluble | Soluble | 0.096 |  | 
11 | H-RILAVERYLKDQQLLGIWGCSGKLICTTAVPWNAS-OH (cysteine pairing not given here) [SP35, reference compound] | Soluble |  |  |  | 
12 | SEQ ID 13: Chicken MMP-9 synthetic oligopeptide, sequence CHFPFIFEGRSYSRC | Soluble | Soluble |  | most active | 
13 | SEQ ID 8: Carp MMP-9 synthetic oligopeptide, sequence DKDKIFGF | Soluble | Soluble | 0.097 |  | 
14 | SEQ ID 9: Pufferfish MMP-9 synthetic oligopeptide, sequence DKDKKYGF | Soluble | Soluble | 0.131 |  | 
15 | SEQ ID 11: Mouse MMP-9 synthetic oligopeptide, sequence DKDGKFGF (printed identical to SEQ ID 5) | Soluble | Soluble | 0.183 |  | 
16 | SEQ ID 12: Rat MMP-9 synthetic oligopeptide, sequence CHFPFTFEGRSYLSC |  | Insoluble | 0.661 |  | Soluble
17 | SEQ ID 7: Rat MMP-9 synthetic oligopeptide, sequence DTDRKYGF | Soluble | Soluble | 1.610 |  | 
18 | SEQ ID 19: Mouse MMP-9 synthetic oligopeptide, sequence DQDKLYGFCPTRVDA (printed identical to SEQ ID 17) | Soluble | Soluble | 0.818 |  | 
